# Biological target: 破伤风毒素 (Clostridium tetani, UniProt P04958 2-1315)
# Sequence (P04958 2-457 limits assumed, chain 1 of 2): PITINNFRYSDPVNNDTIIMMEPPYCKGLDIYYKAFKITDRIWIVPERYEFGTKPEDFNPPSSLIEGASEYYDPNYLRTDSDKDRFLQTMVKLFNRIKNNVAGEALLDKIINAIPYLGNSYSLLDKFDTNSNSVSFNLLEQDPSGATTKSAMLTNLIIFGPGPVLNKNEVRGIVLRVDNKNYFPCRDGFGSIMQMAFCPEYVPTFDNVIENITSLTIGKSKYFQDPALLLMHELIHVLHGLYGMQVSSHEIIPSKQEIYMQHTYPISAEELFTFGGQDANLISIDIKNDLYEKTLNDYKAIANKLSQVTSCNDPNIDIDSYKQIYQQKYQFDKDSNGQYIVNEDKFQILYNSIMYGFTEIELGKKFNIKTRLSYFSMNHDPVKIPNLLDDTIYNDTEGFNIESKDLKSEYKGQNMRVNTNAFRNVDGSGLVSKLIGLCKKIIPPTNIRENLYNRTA
# Sequence (P04958 458-1315 limits assumed, chain 2 of 2): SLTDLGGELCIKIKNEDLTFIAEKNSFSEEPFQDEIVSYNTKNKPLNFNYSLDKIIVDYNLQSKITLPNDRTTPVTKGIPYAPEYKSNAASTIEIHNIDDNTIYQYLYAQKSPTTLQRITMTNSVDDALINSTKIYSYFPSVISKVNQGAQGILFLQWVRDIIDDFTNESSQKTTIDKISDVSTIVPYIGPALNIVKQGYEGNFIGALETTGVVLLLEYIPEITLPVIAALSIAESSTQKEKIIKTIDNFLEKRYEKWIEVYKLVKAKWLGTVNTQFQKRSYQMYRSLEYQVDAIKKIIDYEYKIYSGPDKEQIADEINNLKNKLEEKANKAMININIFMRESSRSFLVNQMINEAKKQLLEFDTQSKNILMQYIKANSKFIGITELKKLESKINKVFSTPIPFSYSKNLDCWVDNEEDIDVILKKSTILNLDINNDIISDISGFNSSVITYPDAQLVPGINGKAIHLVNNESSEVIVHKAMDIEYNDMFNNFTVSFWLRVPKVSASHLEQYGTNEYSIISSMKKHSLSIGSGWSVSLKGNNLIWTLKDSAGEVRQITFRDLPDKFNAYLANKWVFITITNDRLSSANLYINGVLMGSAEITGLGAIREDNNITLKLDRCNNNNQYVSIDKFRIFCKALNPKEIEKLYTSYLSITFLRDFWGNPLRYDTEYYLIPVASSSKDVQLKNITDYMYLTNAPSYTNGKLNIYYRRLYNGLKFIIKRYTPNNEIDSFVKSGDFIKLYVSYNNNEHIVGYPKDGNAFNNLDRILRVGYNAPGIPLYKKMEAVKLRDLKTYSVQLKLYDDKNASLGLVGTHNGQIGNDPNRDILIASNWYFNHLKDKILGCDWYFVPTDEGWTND
binder,measurement,value
"抗体TRN1015 (antibody, V domains shown) VH: EVQLVESGGGRVKPGGSLRLSCSVSGFGIGIYTMNWVRQAPGKGLEWVSSISGTSQYIYYANSVRGRFTISRDNAENSLYLQLNNLRAEDTALYYCVSGSSLDYWGQGTLVTISS VL: DIQLTQSPSSLSASVGGRVTITCRASQNIGTNLNWFQQKPGTAPNLLIYGASTLQSGVPSRFSGSGSGTTFTLTIDSLQPEDFATYYCYQNYNSPKTFGQGTKVDLK",koff,9.4e-05 s⁻¹
same,kon,38800 M⁻¹ s⁻¹

# Source: patent CN108623681A (ZHUHAI TAINUO MAIBO BIOTECHNOLOGY CO LTD; GUANGZHOU …, dated 2018)
